Data published in patent US12049656B2, “Process for the modification of a glycoprotein using a glycosyltransferase that is or is derived from a β(1,4)-n-acetylgalactosaminyltransferase” (Synaffix B.V., priority 2015, dated 2024).

Tests used:
β-(1,4)-GalNAcT = β-(1,4)-GalNAcT (Caenorhabditis elegans, UniProt Q9GUM2); conditions: as donor substrate compared with UDP-GalNAc; cited from earlier work
TnGalNAcT = test: Transfer of 6-modified GalNAc-UDP derivatives to trimmed brentuximab by TnGalNAcT (mass spectrometric analysis); type: biochemical, Trichoplusia ni; conditions: sugar nucleotide 5 mM; TnGalNAcT 1.5 mg/mL; trimmed brentuximab 15 mg/mL; 30 °C overnight
Description: Bentuximab was trimmed analogues to the trimming of trastuzumab as described in example 6.
(§1) Trimmed bentuximab (15 mg/mL) was incubated with 6-amino-6-deoxy-GalNAc-UDP 94 (5 mM) and TnGalNAcT (1.5 mg/mL) in 10 mM MnCl2 and 25 mM Tris-HCl pH 8.0 at 30° C. overnight. A sample of the reaction mixture (2 μL) was incubated for 1 hour at 37° C. with Fabricator™ (1.25 U/μL) in phosphate-buffered saline (PBS) pH 6.6 in a total volume of 10 μL.
as §1, with “6-(2-azidoacetamido)-6-deoxy-GalNAc 93” for “6-amino-6-deoxy-GalNAc-UDP 94”

[1] = system: core GlcNAc(Fuc) substituted trastuzumab; test: Glycosyltransfer of 6-azido-GalNAc-UDP to trimmed trastuzumab under the action of GalNAcTs (mass spectral analysis); type: biochemical; conditions: 6-azido-GalNAc-UDP 1 mM; for Conversions (%) of GlcNAc(Fuc) substituted trastuzumab into 6-azido-GalNAc-GlcNAc(Fuc)-substituted trastuzumab: trimmed trastuzumab 10 mg/mL; for product formation, mass spectral analysis of Fabricator-digested samples: both enzyme concentrations (0.2 or 0.5 mg/mL)
Description: (§2) Prior to mass spectral analysis, IgGs were either treated with DTT, which allows analysis of both light and heavy chain, or treated with Fabricator™ (commercially available from Genovis, Lund, Sweden), which allows analysis of the Fc/2 fragment. For analysis of both light and heavy chain, a solution of 20 μg (modified) IgG was incubated for 5 minutes at 37° C. with 100 mM DTT in a total volume of 4 μL. If present, azide-functionalities are reduced to amines under these conditions. For analysis of the Fc/2 fragment, a solution of 20 μg (modified) IgG was incubated for 1 hour at 37° C. with Fabricator™ (1.25 U/μL) in phosphate-buffered saline (PBS) pH 6.6 in a total volume of 10 μL. After reduction or Fabricator-digestion the samples were washed trice with milliQ using an Amicon Ultra-0.5, Ultracel-10 Membrane (Millipore) resulting in a final sample volume of approximately 40 μL. Next, the samples were analyzed by electrospray ionization time-of-flight (ESI-TOF) on a JEOL AccuTOF. Deconvoluted spectra were obtained using Magtran software.
Glycan trimming of trastuzumab was performed with endo S from Streptococcus pyogenes (commercially available from Genovis, Lund, Sweden). Thus, trastuzumab (10 mg/mL) was incubated with endo S (40 U/mL) in 25 mM Tris pH 8.0 for approximately 16 hours at 37° C. The deglycosylated IgG was concentrated and washed with 10 mM MnCl2 and 25 mM Tris-HCl pH 8.0 using an Amicon Ultra-0.5, Ultracel-10 Membrane (Millipore). […] The two peaks of heavy chain belonged to one major product (49496 Da, 90% of total heavy chain), resulting from core GlcNAc(Fuc) substituted trastuzumab, and a minor product (49351 Da, ±10% of total heavy chain), resulting from trimmed trastuzumab.
Incorporation of 6-azidoGalNAc was tested for CeGalNAcT(30-383) (identified by SEQ ID NO: 6), AsGalNAcT(30-383) (identified by SEQ ID NO: 7), TnGalNAcT(33-421) (identified by SEQ ID NO: 8) and DmGalNAcT(47-403) (identified by SEQ ID NO: 9), which were expressed and purified as described in example 5. Trimmed trastuzumab (10 mg/mL), obtained by endo S treatment of trastuzumab as described above, was incubated with 6-azido-GalNAc-UDP (1 mM, commercially available from GlycoHub) in 10 mM MnCl2 and 25 mM Tris-HCl pH 7.5 and either 0.2 or 0.5 mg/mL of one of the above mentioned GalNAcTs.

[2] = cited from earlier work
[3] = system: core GlcNAc(Fuc) substituted trastuzumab; test: Glycosyltransfer of 6-azido-Gal-UDP to trimmed trastuzumab under the action of bovine β(1,4)-Gal-T1; type: biochemical; conditions: 0.1 or 0.5 mg/mL enzyme; 6-azido-Gal-UDP 1 mM; 30 °C overnight
Description: as §2
Glycan trimming of trastuzumab was performed with endo S from Streptococcus pyogenes (commercially available from Genovis, Lund, Sweden). Thus, trastuzumab (10 mg/mL) was incubated with endo S (40 U/mL) in 25 mM Tris pH 8.0 for approximately 16 hours at 37° C. […]

Chain of β-(1,4)-GalNAcT (Q9GUM2 whole entry): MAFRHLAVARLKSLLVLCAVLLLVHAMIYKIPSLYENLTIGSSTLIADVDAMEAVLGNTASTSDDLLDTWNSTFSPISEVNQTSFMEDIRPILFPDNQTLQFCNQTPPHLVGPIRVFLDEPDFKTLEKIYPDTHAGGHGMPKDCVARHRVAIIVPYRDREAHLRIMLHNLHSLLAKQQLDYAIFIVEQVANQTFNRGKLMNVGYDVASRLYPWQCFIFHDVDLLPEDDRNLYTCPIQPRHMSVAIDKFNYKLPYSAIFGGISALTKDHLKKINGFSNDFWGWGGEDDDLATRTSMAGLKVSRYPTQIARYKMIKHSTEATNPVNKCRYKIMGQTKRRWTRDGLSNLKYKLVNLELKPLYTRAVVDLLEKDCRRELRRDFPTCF

Molecule	Conversions (%) of GlcNAc(Fuc) substituted trastuzumab into 6-azido-GalNAc-GlcNAc(Fuc)-substituted trastuzumab ([1]; 0.2 mg/mL enzyme)	Conversions (%) of GlcNAc(Fuc) substituted trastuzumab into 6-azido-GalNAc-GlcNAc(Fuc)-substituted trastuzumab ([1]; 0.5 mg/mL enzyme)	product formation, mass spectral analysis of Fabricator-digested samples [1]	other results
CC(=O)N[C@H]1[C@@H](OP(=O)(O)OP(=O)(O)OC[C@H]2O[C@@H](n3ccc(=O)[nH]c3=O)[C@H](O)[C@@H]2O)O[C@H](CO)[C@@H](O)[C@@H]1O [UDP-GlcNAc]				transferase activity remains (β-(1,4)-GalNAcT): 0.7%
CC(=O)NC1C(OP(=O)(O)OP(=O)(O)OCC2OC(n3ccc(=O)[nH]c3=O)C(O)C2O)OC(CNC(=O)CN=[N+]=[N-])C(O)C1O (stereo not drawn) [compound 93, 6-(2-azidoacetamido)-6-deoxy-GalNAc-UDP]				conversion to the modified brentuximab product (TnGalNAcT): 70%
CC(=O)NC1C(OP(=O)(O)OP(=O)(O)OCC2OC(n3ccc(=O)[nH]c3=O)C(O)C2O)OC(CN)C(O)C1O (stereo not drawn) [compound 94, 6-amino-6-deoxy-GalNAc-UDP]				conversion to the modified brentuximab product (TnGalNAcT): full conversion
CeGalNAcT (30-383): truncated Caenorhabditis elegans β-(1,4)-GalNAcT enzyme, amino acids 30-383 of SEQ ID NO: 2	0%	0%	no product formation	
TnGalNAcT (33-421): truncated Trichoplusia ni β-(1,4)-GalNAcT enzyme, amino acids 33-421 of SEQ ID NO: 4 (protein, TnGalNAcT(33-421)) SPLRTYLYTPLYNATQPTLRNVERLAANWPKKIPSNYIEDSEEYSIKNISLSNHTTRASVVHPPSSITETASKLDKNMTIQDGAFAMISPTPLLITKLMDSIKSYVTTEDGVKKAEAVVTLPLCDSMPPDLGPITLNKTELELEWVEKKFPEVEWGGRYSPPNCTARHRVAIIVPYRDRQQHLAIFLNHMHPFLMKQQIEYGIFIVEQEGNKDFNRAKLMNVGFVESQKLVAEGWQCFVFHDIDLLPLDTRNLYSCPRQPRHMSASIDKLHFKLPYEDIFGGVSAMTLEQFTRVNGFSNKYWGWGGEDDDMSYRLKKINYHIARYKMSIARYAMLDHKKSTPNPKRYQLLSQTSKTFQKDGLSTLEYELVQVVQYHLYTHILVNIDERS	40%	60%	partial conversion	
AsGalNAcT (30-383): truncated Ascaris sum β-(1,4)-GalNAcT enzyme, amino acids 30-383 of SEQ ID NO: 3 (protein, AsGalNAcT (30-383)) DYSFWSPAFIISAPKTLTTLQPFSQSTSTNDLAVSALESVEFSMLDNSSILHASDNWTNDELVMRAQNENLQLCPMTPPALVGPIKVWMDAPSFAELERLYPFLEPGGHGMPTACRARHRVAIVVPYRDRESHLRTFLHNLHSLLTKQQLDYAIFVVEQTANETFNRAKLMNVGYAEAIRLYDWRCFIFHDVDLLPEDDRNLYSCPDEPRHMSVAVDKFNYKLPYGSIFGGISALTREQFEGINGFSNDYWGWGGEDDDLSTRVTLAGYKISRYPAEIARYKMIKHNSEKKNPVNRCRYKLMSATKSRWRNDGLSSLSYDLISLGRLPLYTHIKVDLLEKQSRRYLRTHGFPTC	10%	30%	partial conversion	
β4GalT(Y289L,M344H): double mutant β-1,4-galactosyltransferase described by Ramakrishnan et al. (protein, UniProt P08037 1-402, looked up, variant Y289L M344H) MKFREPLLGGSAAMPGASLQRACRLLVAVCALHLGVTLVYYLAGRDLRRLPQLVGVHPPLQGSSHGAAAIGQPSGELRLRGVAPPPPLQNSSKPRSRAPSNLDAYSHPGPGPGPGSNLTSAPVPSTTTRSLTACPEESPLLVGPMLIEFNIPVDLKLVEQQNPKVKLGGRYTPMDCISPHKVAIIIPFRNRQEHLKYWLYYLHPILQRQQLDYGIYVINQAGESMFNRAKLLNVGFKEALKDYDYNCFVFSDVDLIPMNDHNTYRCFSQPRHISVAMDKFGFSLPYVQLFGGVSALSKQQFLSINGFPNNYWGWGGEDDDIYNRLAFRGMSVSRPNAVIGKCRHIRHSRDKKNEPNPQRFDRIAHTKETMLSDGLNSLTYMVLEVQRYPLYTKITVDIGTPS				activity in the presence of Mg2+ ([2]; Mg2+): 25-30%; loss of Mn2+-dependent activity ([2]; Mn2+): 98%
bovine β(1,4)-Gal-T1: bovine β(1,4)-galactosyltransferase, commercially available from Sigma Aldrich (protein, Bos Taurus GalT Y289L mutant, bovine β(1,4)-galactosyltransferase, commercially available from Sigma Aldrich) MKFREPLLGGSAAMPGASLQRACRLLVAVCALHLGVTLVYYLAGRDLRRLPQLVGVHPPLQGSSHGAAAIGQPSGELRLRGVAPPPPLQNSSKPRSRAPSNLDAYSHPGPGPGPGSNLTSAPVPSTTTRSLTACPEESPLLVGPMLIEFNIPVDLKLIEQQNPKVKLGGRYTPMDCISPHKVAIIILFRNRQEHLKYWLYYLHPMVQRQQLDYGIYVINQAGESMFNRAKLLNVGFKEALKDYDYNCFVFSDVDLIPMNDHNTYRCFSQPRHISVAMDKFGFSLPYVQLFGGVSALSKQQFLSINGFPNNYWGWGGEDDDIYNRLAFRGMSVSRPNAVIGKCRMIRHSRDKKNEPNPQRFDRIAHTKETMLSDGLNSLTYMVLEVQRYPLYTKITVDIGTPS				product formation, mass spectral analysis of reduced samples [3]: no product formation
DmGalNAcT (47-403): truncated Drosophila melanogaster β-(1,4)-GalNAcT enzyme, amino acids 47-403 of SEQ ID NO: 5 (protein, DmGalNAcT (47-403)) HKYAHIYGNASSDGAGGSEASRLPASPLALSKDRERDQELNGGPNSTIRTVIATANFTSIPQDLTRFLLGTKKFLPPRQKSTSALLANCTDPDPRDGGPITPNTTLESLDVIEAELGPLLRPGGAFEPENCNAQHHVAIVVPFRDRYAHLLLFLRNIHPFLMKQRIAYRIFIVEQTNGKPFNRAAMMNIGYLEALKLYQWDCFIFHDVDLLPLDDRNLYNCPRQPRHMSVAIDTLNFRLPYRSIFGGVSAMTREHFQAVNGFSNSFFGWGGEDDDMSNRLKHANLFISRYPVNIARYKMLKHQKEKANPKRYENLQNGMSKIEQDGINSIKYSIYSIKQFPTFTWYLAELKNSERKS	0%	0%	no product formation	
